Laboratory results taken from patent US20230129258A1 (Bicycle, published 2023).
Starred links: 1 amine or outer side, 2 acyl side, 3 side chain; linkers in the order of their positions; H or OH if unused. Positions of bridges follow the written chain, without caps; N, C: chain ends. Non-standard residues stand in square brackets, D forms with d. Groups on a side chain read outwards from the residue. Primed or numbered codes have the meaning given here. Chains are numbered I, II in the order given. No end group written: not given here. *: point of attachment. dLys(PYA) = D-lysine Nε-acylated with 4-pentynoic acid, clicked (triazole) to the linker azide, O=C(CCc1cn([*:3])nn1)NCCCC[C@@H](N[*:1])C(=O)[*:2]; TATA = O=C(CC[*:1])N1CN(C(=O)CC[*:2])CN(C(=O)CC[*:3])C1; Biotin = O=C1N[C@H]2[C@H](CS[C@H]2CCCCC(=O)*)N1; 1Nal = N[C@@H](Cc1cccc2ccccc12)C(=O)O; Hyp = O=C(O)[C@@H]1C[C@@H](O)CN1; hArg = N=C(N)NCCCC[C@H](N)C(=O)O; tBuAla = CC(C)(C)C[C@H](N)C(=O)O; PEG12′ = not defined here; Nle = CCCC[C@H](N)C(=O)O

Columns and labels:
[1] = molecular target: T1, CD137 on Jurkat reporter cells (Promega kit CS196005) (UniProt Q07011 24-255, limits assumed); assay: cell-based or functional assay
[2] = molecular target: T1, CD137 on Jurkat reporter cells (Promega …); assay: cell-based or functional assay; remark: listed apart in the source
[3] = molecular target: T2, rat CD137 extracellular domain (rat, UniProt Q4W8J3 24-189); assay: SPR direct binding, captured BCY13582, n = 1
T2 sequence: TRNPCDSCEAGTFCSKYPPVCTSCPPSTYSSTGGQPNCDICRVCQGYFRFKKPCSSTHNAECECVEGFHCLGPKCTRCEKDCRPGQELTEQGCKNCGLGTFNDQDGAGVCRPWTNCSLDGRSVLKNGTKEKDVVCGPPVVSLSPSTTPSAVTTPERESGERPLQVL

[4] = molecular target: T3, mouse CD137 extracellular domain (mouse, UniProt P20334 24-187); assay: SPR direct binding, captured BCY13582, n = 1
T3 construct: extracellular domain
T3 sequence (looked up): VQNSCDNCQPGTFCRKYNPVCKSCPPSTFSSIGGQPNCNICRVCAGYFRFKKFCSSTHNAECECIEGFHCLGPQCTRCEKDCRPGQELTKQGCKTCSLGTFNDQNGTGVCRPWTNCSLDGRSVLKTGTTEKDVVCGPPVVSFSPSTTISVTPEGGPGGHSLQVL

[5] = molecular target: T4, soluble OX40 (UniProt P43489 29-216, limits assumed); assay: SPR, streptavidin captured BCY13582, soluble receptor
T4 construct: also called soluble TNF family receptor OX40
T4 sequence (looked up): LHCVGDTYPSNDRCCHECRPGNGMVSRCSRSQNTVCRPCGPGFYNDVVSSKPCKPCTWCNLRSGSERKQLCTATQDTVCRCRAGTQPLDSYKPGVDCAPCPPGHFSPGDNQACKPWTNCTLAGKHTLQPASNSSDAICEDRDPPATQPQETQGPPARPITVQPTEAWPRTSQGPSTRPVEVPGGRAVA

[6] = molecular target: T5, soluble CD40 (UniProt P25942 21-193, limits assumed); assay: as above
T5 construct: also called soluble TNF family receptor CD40

[7] = molecular target: T6, cyno (NHP) CD137 extracellular domain (cyno (NHP), UniProt A9YYE7 24-186); assay: SPR direct binding, captured BCY13582, soluble CD137 ECD, n = 1
T6 construct: extracellular domain

[8] = molecular target: T7, human CD137 extracellular domain (human, UniProt Q07011 24-186, biotinylated where captured on the streptavidin chip); assay: SPR direct binding, captured BCY13582, soluble CD137 ECD, n = 3
T7 construct: extracellular domain; Section 17 says only 'Recombinant human CD137 (R&D systems)'; also called CD137 (human); Recombinant human CD137 (R&D systems)

[9] = molecular target: T8, GPR39 (human, UniProt O43194); assay: Retrogenix cell microarray, HEK293 cells over-expressing the protein, detection with AlexaFluor647 streptavidin
T8 construct: full-length protein over-expressed in HEK293 cells
T8 sequence (single chain, looked up): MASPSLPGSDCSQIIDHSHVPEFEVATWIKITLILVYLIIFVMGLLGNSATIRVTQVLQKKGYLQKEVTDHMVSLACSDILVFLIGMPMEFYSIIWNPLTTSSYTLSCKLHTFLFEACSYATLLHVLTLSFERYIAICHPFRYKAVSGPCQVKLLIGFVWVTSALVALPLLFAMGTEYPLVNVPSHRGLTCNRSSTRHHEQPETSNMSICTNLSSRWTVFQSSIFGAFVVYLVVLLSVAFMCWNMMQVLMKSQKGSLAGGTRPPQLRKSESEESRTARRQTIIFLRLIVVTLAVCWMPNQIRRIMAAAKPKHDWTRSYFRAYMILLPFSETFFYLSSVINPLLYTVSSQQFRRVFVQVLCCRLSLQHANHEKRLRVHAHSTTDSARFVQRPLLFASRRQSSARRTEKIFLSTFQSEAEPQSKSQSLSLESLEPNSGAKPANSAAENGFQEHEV

[10] = molecular target: T9, EVA1C (human, UniProt P58658); assay: as above
T9 construct: full-length protein over-expressed in HEK293 cells
T9 sequence (single chain, looked up): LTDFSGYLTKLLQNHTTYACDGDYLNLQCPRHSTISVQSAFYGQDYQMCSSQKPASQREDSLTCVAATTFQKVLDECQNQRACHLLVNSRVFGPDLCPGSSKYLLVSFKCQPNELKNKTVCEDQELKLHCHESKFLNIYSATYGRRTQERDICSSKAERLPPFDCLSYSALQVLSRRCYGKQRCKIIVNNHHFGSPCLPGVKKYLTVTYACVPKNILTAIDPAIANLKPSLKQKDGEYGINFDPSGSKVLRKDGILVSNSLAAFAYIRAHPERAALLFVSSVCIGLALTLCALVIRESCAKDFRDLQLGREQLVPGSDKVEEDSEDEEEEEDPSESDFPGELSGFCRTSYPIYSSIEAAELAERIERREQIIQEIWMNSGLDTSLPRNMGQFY

[11] = molecular target: T10, IGFBP1 (human, UniProt P08833); assay: as above
T10 construct: full-length protein over-expressed in HEK293 cells
T10 sequence (single chain, looked up): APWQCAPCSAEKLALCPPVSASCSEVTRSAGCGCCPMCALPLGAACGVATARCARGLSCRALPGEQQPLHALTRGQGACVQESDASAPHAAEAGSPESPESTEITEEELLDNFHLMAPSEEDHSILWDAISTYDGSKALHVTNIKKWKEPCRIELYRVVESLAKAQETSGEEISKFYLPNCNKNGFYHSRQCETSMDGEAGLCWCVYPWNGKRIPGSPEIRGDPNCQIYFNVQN

[12] = molecular target: T11, HMGB2 (human, UniProt P26583); assay: as above
T11 construct: full-length protein over-expressed in HEK293 cells
T11 sequence (single chain, looked up): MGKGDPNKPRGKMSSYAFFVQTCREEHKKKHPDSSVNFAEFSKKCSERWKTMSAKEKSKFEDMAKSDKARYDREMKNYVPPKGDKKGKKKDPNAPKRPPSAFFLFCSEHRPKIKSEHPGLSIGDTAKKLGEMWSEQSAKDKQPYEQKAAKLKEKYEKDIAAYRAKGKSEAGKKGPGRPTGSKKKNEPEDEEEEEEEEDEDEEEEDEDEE

[13] = molecular target: T12, METTL24 (human, UniProt Q5JXM2); assay: as above
T12 construct: full-length protein over-expressed in HEK293 cells
T12 sequence (single chain, looked up): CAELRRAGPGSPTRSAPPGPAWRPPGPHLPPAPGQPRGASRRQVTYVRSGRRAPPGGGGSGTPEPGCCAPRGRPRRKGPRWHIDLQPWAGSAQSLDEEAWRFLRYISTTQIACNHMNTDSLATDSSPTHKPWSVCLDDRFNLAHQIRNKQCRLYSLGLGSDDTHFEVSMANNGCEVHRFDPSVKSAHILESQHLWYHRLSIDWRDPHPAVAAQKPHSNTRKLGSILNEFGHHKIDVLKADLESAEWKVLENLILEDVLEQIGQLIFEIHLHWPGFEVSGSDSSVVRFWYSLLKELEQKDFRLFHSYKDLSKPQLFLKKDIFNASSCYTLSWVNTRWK

[14] = molecular target: T13, APLN (human, UniProt Q9ULZ1); assay: as above
T13 construct: full-length protein over-expressed in HEK293 cells
T13 sequence (single chain, looked up): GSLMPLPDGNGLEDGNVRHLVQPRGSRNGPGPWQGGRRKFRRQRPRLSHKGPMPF

T1 sequence (Q07011 24-255 limits assumed): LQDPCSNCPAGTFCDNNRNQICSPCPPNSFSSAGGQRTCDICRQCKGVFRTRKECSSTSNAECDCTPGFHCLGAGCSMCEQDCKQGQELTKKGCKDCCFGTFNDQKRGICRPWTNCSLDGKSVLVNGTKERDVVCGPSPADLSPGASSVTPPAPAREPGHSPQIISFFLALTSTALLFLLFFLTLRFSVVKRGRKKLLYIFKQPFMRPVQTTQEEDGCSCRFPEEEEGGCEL
T7 sequence (Q07011 24-186): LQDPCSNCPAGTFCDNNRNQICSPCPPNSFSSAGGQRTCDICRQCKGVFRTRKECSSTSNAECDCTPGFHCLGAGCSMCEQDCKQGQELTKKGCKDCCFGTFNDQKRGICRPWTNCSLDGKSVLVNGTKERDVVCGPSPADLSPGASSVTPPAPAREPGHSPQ
T6 sequence (A9YYE7 entry or part of it): as the sequence (Q07011 24-186) above, with P4L, N19S, R50K, T66I, P67S, F69Y, G75E, V149A counted along it
T5 sequence (P25942 21-193 limits assumed): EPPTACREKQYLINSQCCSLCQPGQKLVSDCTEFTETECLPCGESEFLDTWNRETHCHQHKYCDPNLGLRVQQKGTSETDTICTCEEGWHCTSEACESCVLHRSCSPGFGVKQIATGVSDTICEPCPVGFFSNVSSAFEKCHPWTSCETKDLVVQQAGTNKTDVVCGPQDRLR

- Arithmetic mean EC50 (nM), HT1376 co-culture [1]: 0.58 nM
- Arithmetic mean EC50 (nM), MDA-MB-468 co-culture [1]: 0.34 nM
- EC50 (nM), HT1376 co-culture [2]: 0.58 nM
- Emax (fold induction over background), HT1376 [2]: 57 fold over background
- binding result [3]: no binding
- binding result [4]: no binding
- binding result [5]: no binding (tested: 100 nM)
- binding result [6]: no binding (tested: 100 nM)
- Kd [7]: 4.23 nM
- Kd [8]: 8.4 nM
- binding result [9]: no binding (tested: 1 µM)
- binding result [10]: no binding (tested: 1 µM)
- binding result [11]: no binding (tested: 1 µM)
- binding result [12]: no binding (tested: 1 µM)
- binding result [13]: no binding (tested: 1 µM)
- binding result [14]: no binding (tested: 1 µM)
B1: BCY13582 (biotinylated BCY11863) (peptide)
peptide 1: CP[1Nal][dD]CM[hArg]DWSTP[Hyp]WC
peptide 2: Ac-C[tBuAla]PE[dLys(PYA)]PYCFADPY[Nle]CA
peptide 3: Ac-C[tBuAla]PE[dLys(PYA)]PYCFADPY[Nle]CK([PEG12′-Biotin])
modifications: linker I:1-I:5-I:15, II:1-II:8-II:15, III:1-III:8-III:15 via TATA; also: linker at chain B 5 at chain C 5 to a chain's N-terminus via N-(acid-PEG3)-N-bis(PEG3-azide)
notes: also called test peptide
